Experimental data as given in publication PMC2230540 (The Journal of General Physiology, 1999).

Target: the molecule itself
Experiment: cross-linking

B1: EriC, Escherichia coli ClC-type Cl- channel homologue, product of the yadQ gene (natural protein, UniProt P37019 1-473, looked up)
chain: MKTDTPSLETPQAARLRRRQLIRQLLERDKTPLAILFMAAVVGTLVGLAAVAFDKGVAWLQNQRMGALVHTADNYPLLLTVAFLCSAVLAMFGYFLVRKYAPEAGGSGIPEIEGALEDQRPVRWWRVLPVKFFGGLGTLGGGMVLGREGPTVQIGGNIGRMVLDIFRLKGDEARHTLLATGAAAGLAAAFNAPLAGILFIIEEMRPQFRYTLISIKAVFIGVIMSTIMYRIFNHEVALIDVGKLSDAPLNTLWLYLILGIIFGIFGPIFNKWVLGMQDLLHRVHGGNITKWVLMGGAIGGLCGLLGFVAPATSGGGFNLIPIATAGNFSMGMLVFIFVARVITTLLCFSSGAPGGIFAPMLALGTVLGTAFGMVAVELFPQYHLEAGTFAIAGMGALLAASIRAPLTGIILVLEMTDNYQLILPMIITGLGATLLAQFTGGKPLYSAILARTLAKQEAEQLARSKAASASENT
  stoichiometry N: 2
